The target in assay [1] is T1, Syndecan-3 ectodomain purified from early postnatal rat brain (rat, UniProt P33671 45-387, carries natural heparan sulfate (HS) side chains; attachment residues not stated).
T1 construct: extracellular domain; Native proteoglycan; also called S3; extracellular domain of syndecan-3
As to the kind of experiment: SPR (IAsys), GFL immobilised on aminosilane cuvette, syndecan-3 ectodomain in solution. The method, then:
(§1) The affinities of GFLs for heparin and heparin-like molecules (e.g. syndecan-3) were determined by plasmon surface resonance using the IAsys system (Affinity Sensors, Cambridge, UK). Planar aminosilane cuvettes (Affinity Sensors) were used for protein coupling to avoid problems with mass transport, which occur frequently with matrix surfaces. In the initial approach, heparin-BSA was immobilized to the cuvette surface using the manufacturer's instructions and different ligand concentrations were used to determine association (kₐ) and dissociation (kdis) rates using the IAsys Fastfit software. The dissociation constant Kd was determined from the binding dynamics as […], or from equilibrium response (R) using a simple Langmuir fit: R=(Rₘₐₓ*C)/(Kd+C), where C is the ligand concentration. […] The dissociation constants were determined from binding dynamics and equilibrium response. The same cuvettes were used to test binding of heparan sulfate proteoglycan syndecan-3, which was purified as an ectodomain from early postnatal rat brains by HB-GAM affinity chromatography (Raulo et al., 1994).
(§2) Binding was analyzed using IAsys cuvettes with immobilized heparin-BSA or GFLs. The dissociation constant Kd was determined from dynamics of association and dissociation (Kd=kdis/kₐ), or from equilibrium response R (R=(Rₘₐₓ*C)/(Kd+C), where C is ligand concentration).

Assay [2] concerns the target T1, Syndecan-3 ectodomain purified from …. As to the kind of experiment: SPR (IAsys), GFL immobilised, syndecan-3 ectodomain in solution; Kd = kdis/ka. On the procedure: as §1, §2
For assay [3] the target is unchanged. As to the kind of experiment: SPR (IAsys), GFL immobilised, syndecan-3 ectodomain in solution; equilibrium response. The method, then:
as §1, §2

For assay [4] the target is unchanged. As to the kind of experiment: SPR (IAsys optical biosensor): ARTN immobilized on the aminosilane cuvette, syndecan-3 ectodomain (S3) in solution at 0 to about 95 nM. Kd from the equilibrium response (insert of the ARTN panel). On the procedure: as §1
Assay [5] has the same target. As to the kind of experiment: SPR (IAsys), GFL immobilised, syndecan-3 ectodomain in solution; equilibrium response; equilibrium response only; syndecan-3 concentrations limiting, dynamics could not be fit.

T1 sequence (P33671 45-387): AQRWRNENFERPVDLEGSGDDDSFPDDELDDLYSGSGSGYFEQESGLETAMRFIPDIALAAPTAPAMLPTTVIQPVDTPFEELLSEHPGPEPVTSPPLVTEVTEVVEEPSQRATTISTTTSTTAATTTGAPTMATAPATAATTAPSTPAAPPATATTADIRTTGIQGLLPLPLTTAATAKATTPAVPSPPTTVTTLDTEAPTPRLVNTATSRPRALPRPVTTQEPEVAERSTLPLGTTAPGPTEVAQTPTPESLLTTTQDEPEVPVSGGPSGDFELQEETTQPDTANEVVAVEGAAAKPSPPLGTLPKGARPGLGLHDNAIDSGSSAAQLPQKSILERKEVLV

B1: Glial cell line-derived neurotrophic factor (GDNF) (ligand, UniProt P39905 78-211, looked up)
chain: SPDKQMAVLPRRERNRQAAAANPENSRGKGRRGQRGKNRGCVLTAIHLNVTDLGLGYETKEELIFRYCSGSCDAAETTYDKILKNLSRNRRLVSDKVGQACCRPIAFDDDLSFLDDNLVYHILRKHSAKRCGCI
notes: Immobilised on an aminosilane cuvette for SPR, or coated on plastic, glass or filters for the cell assays; also called wtGDNF; unlabeled (Cold) GDNF
For orientation: koff means a measure of how fast the partners let go of each other. For orientation: kon means a measure of how fast the partners come together. The low end stands for slow association, the high end for fast association. For orientation: Kd means a measure of binding affinity in units of concentration. High values mean weaker binding, low ones tighter binding. B1: in assay [1], the koff was 0.015 s⁻¹ and the on-rate constant (kon) was found to be 1.3e+06 M⁻¹ s⁻¹. The molecule also returned a Kd in assay [2] of 11.5 nM. This molecule displayed a Kd in assay [3] of 12 nM.

B2: Neurturin (NRTN) (ligand, UniProt Q99748 96-197, looked up)
chain: ARLGARPCGLRELEVRVSELGLGYASDETVLFRYCAGACEAAARVYDLGLRRLRQRRRLRRERVRAQPCCRPTAYEDEVSFLDAHSRYHTVHELSARECACV
B2 returned a dissociation rate constant (koff) in assay [1] of 0.021 s⁻¹. In addition, the association rate constant (kon) in assay [1] came out at 750000 M⁻¹ s⁻¹. The figures for the dissociation constant (Kd) in assay [2] and in assay [3] were 26.3 nM and 28.5 nM, respectively.

B3: Artemin (ARTN) (ligand, UniProt Q5T4W7 108-220, looked up)
chain: AGGPGSRARAAGARGCRLRSQLVPVRALGLGHRSDELVRFRFCSGSCRRARSPHDLSLASLLGAGALRPPPGSRPVSQPCCRPTRYEAVSFMDVNSTWRTVDRLSATACGCLG
Regarding B3, the koff in assay [1] turned out to be 0.034 s⁻¹. Further, the association rate constant (kon) in assay [1] turned out to be 630000 M⁻¹ s⁻¹. Further, the dissociation constant Kd in assay [2] came out at 53.9 nM; in assay [3], 21.2 nM; in assay [4] it was 21.1 nM.

B4: Persephin (PSPN) (ligand, UniProt O60542 61-156, looked up)
chain: ALSGPCQLWSLTLSVAELGLGYASEEKVIFRYCAGSCPRGARTQHGLALARLQGQGRAHGGPCCRPTRYTDVAFLDDRHRWQRLPQLSAAACGCGG
B4 registered a Kd in assay [5] above 70 nM.

The values above are taken from patent US20080057516A1 (published 2008).
